Drawing on article PMC2795851, this text covers Ka, koff and kon for nine substances.

“And” between values parts separate entries of the source, which are not always exact repeats. Equal entries are not always repeated.

The koff is a measure of how fast the partners let go of each other. A high value points to fast dissociation. The kon is a measure of how fast the partners come together. A lower kon goes with slow association.

For this assay, the target named is sfpCHIR-AB1, soluble fusion protein of the extracellular region of CHIR-AB1 and human IgG-Fc (chicken). In words: SPR; 90RU of purified sfpCHIR-AB1 immobilised on a CM5 sensor surface; purified IgY-Fc (Fcυ2–4) mutants 25–400 nM flowed over; Biacore 3000; 1:1 binding model. In general terms: Surface plasmon resonance follows binding to a sensor surface in real time, without labels.
For the substance “chicken IgY-Fc (Fcυ2–4) H495E (domain or fragment)”, the Ka came to 1.1e+08 M⁻¹, the koff was found to be 0.0015 s⁻¹ and the association rate constant (kon) was 170000 M⁻¹ s⁻¹.

As for “chicken IgY-Fc fragment containing heavy chain constant domains 2, 3 and 4 (Fcυ2–4), wild type (domain or fragment)”, the Ka is 2.1e+08 M⁻¹ and 1.4e+08 M⁻¹; the koff is 0.0012 s⁻¹ and 0.0021 s⁻¹; the association rate constant (kon) was 300000 M⁻¹ s⁻¹ and 260000 M⁻¹ s⁻¹.

“chicken IgY-Fc (Fcυ2–4) R490E (domain or fragment)” came in with a Ka of 4.5e+08 M⁻¹, a koff of 0.00051 s⁻¹ and an association rate constant (kon) of 230000 M⁻¹ s⁻¹.

As to “chicken IgY-Fc (Fcυ2–4) N376D (domain or fragment)”, the Ka was 2e+08 M⁻¹, the koff was 0.0021 s⁻¹ and the on-rate (kon) was found to be 410000 M⁻¹ s⁻¹.

The substance “chicken IgY-Fc (Fcυ2–4) F557R (domain or fragment)” showed a Ka of 7.3e+07 M⁻¹, an off-rate (koff) of 0.013 s⁻¹ and an on-rate constant (kon) of 920000 M⁻¹ s⁻¹.

In the case of “chicken IgY-Fc (Fcυ2–4) S346D/C347P/S348R/P349G (domain or fragment)”, the Ka worked out at 9.5e+07 M⁻¹, the koff worked out at 0.0044 s⁻¹ and the kon was 420000 M⁻¹ s⁻¹.

As to “chicken IgY-Fc (Fcυ2–4) E437H/L440R (domain or fragment)”, the Ka amounted to 1.8e+08 M⁻¹, the off-rate (koff) was 0.0021 s⁻¹ and the kon is 380000 M⁻¹ s⁻¹.

“chicken IgY-Fc (Fcυ2–4) R556E (domain or fragment)” returned a Ka of 9.3e+06 M⁻¹, a koff of 0.0011 s⁻¹ and a kon of 11000 M⁻¹ s⁻¹.

Substance “chicken IgY-Fc (Fcυ2–4) R496E (domain or fragment)” came in with a Ka of 1.8e+08 M⁻¹, an off-rate constant (koff) of 0.0013 s⁻¹ and a kon of 220000 M⁻¹ s⁻¹.
